Data on one molecule can be found in article PMC5207070, “The Amino-terminal Domain of the Androgen Receptor Co-opts Extracellular Signal-regulated Kinase (ERK) Docking Sites in ELK1 Protein to Induce Sustained Gene Activation That Supports Prostate Cancer Cell Growth*^([image sbox.jpg])” (The Journal of Biological Chemistry, 2016).

This test has as its target T1, purified full-length human AR (Abcam ab82609) (human, UniProt P10275 1-920).
T1 construct: androgen receptor, human, full length; also called Purified AR; AR polypeptide (ligand)
T1 sequence (looked up): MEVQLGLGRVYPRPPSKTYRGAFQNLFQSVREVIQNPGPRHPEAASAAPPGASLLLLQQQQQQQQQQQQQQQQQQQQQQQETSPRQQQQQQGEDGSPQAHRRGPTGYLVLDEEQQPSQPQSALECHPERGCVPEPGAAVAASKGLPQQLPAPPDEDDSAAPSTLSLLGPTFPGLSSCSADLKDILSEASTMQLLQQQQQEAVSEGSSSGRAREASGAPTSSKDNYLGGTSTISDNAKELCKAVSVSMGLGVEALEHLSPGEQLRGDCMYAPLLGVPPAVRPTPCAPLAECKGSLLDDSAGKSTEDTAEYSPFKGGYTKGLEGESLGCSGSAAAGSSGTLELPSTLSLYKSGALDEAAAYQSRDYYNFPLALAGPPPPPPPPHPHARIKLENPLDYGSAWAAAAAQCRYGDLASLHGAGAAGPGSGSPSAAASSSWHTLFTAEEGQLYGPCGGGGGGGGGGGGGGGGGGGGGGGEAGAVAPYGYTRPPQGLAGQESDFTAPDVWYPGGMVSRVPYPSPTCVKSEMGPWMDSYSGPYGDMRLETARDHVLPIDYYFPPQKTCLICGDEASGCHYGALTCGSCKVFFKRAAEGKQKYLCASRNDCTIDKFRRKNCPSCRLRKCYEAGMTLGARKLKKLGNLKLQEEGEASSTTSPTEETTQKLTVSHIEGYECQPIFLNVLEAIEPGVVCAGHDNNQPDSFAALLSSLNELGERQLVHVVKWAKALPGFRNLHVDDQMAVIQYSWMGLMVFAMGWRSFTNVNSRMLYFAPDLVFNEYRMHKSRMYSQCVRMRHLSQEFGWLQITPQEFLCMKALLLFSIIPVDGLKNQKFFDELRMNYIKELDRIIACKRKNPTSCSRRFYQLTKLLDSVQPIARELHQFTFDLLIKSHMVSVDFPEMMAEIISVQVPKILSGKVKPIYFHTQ
The test is described as follows: SPR; BIAcore 3000; AR immobilised on a CM5 chip by amine coupling; His-ELK1 (0-160 nM) or mutant ELK1 (100 nM) as analyte; HBS-N buffer; 1:1 Langmuir model; Kd = koff/kon. The following applies: both partners purified. In general terms: In SPR one partner is held on a chip, and binding of the other changes the refractive index at the surface.

B1: His-tagged ELK1 (natural protein, human, UniProt P19419 1-428, looked up)
chain: MDPSVTLWQFLLQLLREQGNGHIISWTSRDGGEFKLVDAEEVARLWGLRKNKTNMNYDKLSRALRYYYDKNIIRKVSGQKFVYKFVSYPEVAGCSTEDCPPQPEVSVTSTMPNVAPAAIHAAPGDTVSGKPGTPKGAGMAGPGGLARSSRNEYMRSGLYSTFTIQSLQPQPPPHPRPAVVLPSAAPAGAAAPPSGSRSTSPSPLEACLEAEEAGLPLQVILTPPEAPNLKSEELNVEPGLGRALPPEVKVEGPKEELEVAGERGFVPETTKAEPEVPPQEGVPARLPAVVMDTAGQAGGHAASSPEISQPQKGRKPRDLELPLSPSLLGGPGPERTPGSGSGSGLQAPGPALTPSLLPTHTLTPVLLTPSSLPPSIHFWSTLSPIAPRSPAKLSFQFPSSGSAQVHIPSISVDGLSTPVVLSPGPQKP
notes: ELK1, recombinant; Construct details are in the supplemental material; also called purified ELK1
Molecule B1 gave a Kd of 19 nM.

As a reminder, the Kd is the constant that tells how readily two partners part at equilibrium. Read a low Kd as tighter binding.
